Assay results: patent publication US20250270287A1 (KEROS THERAPEUTICS, published 2025)
Changes are numbered by the printed parent chain.

T1: BMP-9 (UniProt Q9UK05 320-429)
T1 sequence (looked up): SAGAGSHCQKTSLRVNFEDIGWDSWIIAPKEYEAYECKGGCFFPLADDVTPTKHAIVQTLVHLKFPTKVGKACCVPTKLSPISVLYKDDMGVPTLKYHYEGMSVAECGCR

T2: GDF-11 (UniProt O95390 299-407)
T2 sequence (looked up): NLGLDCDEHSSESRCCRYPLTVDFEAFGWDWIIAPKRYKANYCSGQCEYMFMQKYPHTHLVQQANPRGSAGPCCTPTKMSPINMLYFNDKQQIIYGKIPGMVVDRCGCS

T3: growth differentiation factor 8 (GDF-8) (UniProt O14793 267-375)
T3 construct: also called myostatin
T3 sequence (looked up): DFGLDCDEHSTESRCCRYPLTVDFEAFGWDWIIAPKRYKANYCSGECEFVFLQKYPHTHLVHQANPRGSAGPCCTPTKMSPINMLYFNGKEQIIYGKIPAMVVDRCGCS

T4: ActRIIB-A1 (SEQ ID NO: 120) chimera-Fc protein (Homo sapiens (Human), UniProt Q13705 28-134)
T4 construct: Tested as chimera-Fc protein; not shown: linker (if any) and Fc domain
T4 sequence: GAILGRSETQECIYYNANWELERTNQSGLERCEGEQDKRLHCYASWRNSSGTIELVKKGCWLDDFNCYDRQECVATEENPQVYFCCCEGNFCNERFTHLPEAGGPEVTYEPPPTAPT

T5: BMP-10 (UniProt O95393 317-424)
T5 sequence (looked up): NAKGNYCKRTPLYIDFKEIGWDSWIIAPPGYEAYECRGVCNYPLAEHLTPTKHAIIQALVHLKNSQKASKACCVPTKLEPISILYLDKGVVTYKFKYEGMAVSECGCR

B1: ActRIIA-A3 (SEQ ID NO: 106) chimera-Fc protein (Fc fusion)
chain: GAILGRSETQECLFFNANWEKDRTNQTGVEPCEGEQDKRRHCFATWKNISGSIEIVKQGCWLDDINCYDRTDCVEKKDSPEVYFCCCEGNMCNEKFSYFPEMEVTQPTS
notes: Tested as chimera-Fc protein; not shown: linker (if any) and Fc domain
B2: ActRIIA-B1B4 (SEQ ID NO: 102) chimera-Fc protein (Fc fusion)
chain: B1 chain with L13I, F14Y, F15Y, E33Y, E35D, Q36K, S52T, I55L, Q58K
notes: Tested as chimera-Fc protein; also called ActRIIA-B1β4; not shown: linker (if any) and Fc domain
B3: ActRIIA-B1B7 (SEQ ID NO: 101) chimera-Fc protein (Fc fusion)
chain: B1 chain with L13I, F14Y, F15Y, E33Y, E35D, Q36K, K95R, S97T, Y98H, F99L
notes: Tested as chimera-Fc protein; also called ActRIIA-B1β7; not shown: linker (if any) and Fc domain
B4: ActRIIA-B3 (SEQ ID NO: 97) chimera-Fc protein (Fc fusion)
chain: B1 chain with E33Y, E35D, Q36K, R40L, F43Y, T45S, K47R, I49S
notes: as for B1
B5: ActRIIA-A6 (SEQ ID NO: 108) chimera-Fc protein (Fc fusion)
chain: B1 chain with E33Y, E35D, Q36K, K77E, D78E, S79N, E81Q
notes: as for B1
B6: ActRIIA-B2B4 (SEQ ID NO: 103) chimera-Fc protein (Fc fusion)
chain: B1 chain with F14E, T27S, V29L, P31R, E33Y, E35D, Q36K, S52T, I55L, Q58K
notes: as for B1
B7: ActRIIA-B4 (SEQ ID NO: 98) chimera-Fc protein (Fc fusion)
chain: B1 chain with E33Y, E35D, Q36K, S52T, I55L, Q58K
notes: as for B1
B8: ActRIIA-A5 (SEQ ID NO: 107) chimera-Fc protein (Fc fusion)
chain: B1 chain with E33Y, E35D, Q36K, I65F, T71Q, D72E
notes: as for B1
B9: ActRIIA-B7 (SEQ ID NO: 100) chimera-Fc protein (Fc fusion)
chain: B1 chain with E33Y, E35D, Q36K, K95R, S97T, Y98H, F99L
notes: as for B1
B10: ActRIIA-A8 (SEQ ID NO: 110) chimera-Fc protein (Fc fusion)
chain: GAILGRSETQECLFFNANWEKDRTNQTGVEPCYGDKDKRRHCFATWKNISGSIEIVKQGCWLDDINCYDRTDCVEKKDSPEVYFCCCEGNMCNEKFSYFPEAGGPEVTYEPPPTAPT
notes: as for B1
B11: ActRIIA-A1 (SEQ ID NO: 104) chimera-Fc protein (Fc fusion)
chain: GRGEAETRECLFFNANWEKDRTNQTGVEPCYGDKDKRRHCFATWKNISGSIEIVKQGCWLDDINCYDRTDCVEKKDSPEVYFCCCEGNMCNEKFSYFPEMEVTQPTS
notes: as for B1
B12: Activin B (ligand, UniProt P09529 293-407, looked up)
chain: GLECDGRTNLCCRQQFFIDFRLIGWNDWIIAPTGYYGNYCEGSCPAYLAGVPGSASSFHTAVVNQYRMRGLNPGTVNSCCIPTKLSTMSMLYFDDEYNIVKRDVPNMIVEECGCA
B13: Activin A (ligand, UniProt P08476 311-426, looked up)
chain: GLECDGKVNICCKKQFFVSFKDIGWNDWIIAPSGYHANYCEGECPSHIAGTSGSSLSFHSTVINHYRMRGHSPFANLKSCCVPTKLRPMSMLYYDDGQNIIKKDIQNMIVEECGCS

Each binder was assayed against B13 (assay: cell-based or functional assay).

Binder	IC50, SBE-luciferase reporter in HEK293 cells
B1	0.63 µg/mL
B2	0.75 µg/mL
B3	1.4 µg/mL
B4	0.14 µg/mL
B5	0.33 µg/mL
B6	0.7 µg/mL
B7	0.32 µg/mL
B8	0.3 µg/mL
B9	0.84 µg/mL
B10	0.075 µg/mL
B11	0.64 µg/mL

Each binder was assayed against T1, BMP-9 (assay: cell-based or functional assay).

Binder	IC50, BRE-luciferase reporter in C2C12 cells
B1	12 µg/mL
B2	> 50 µg/mL
B3	> 50 µg/mL
B4	> 50 µg/mL
B5	8.8 µg/mL
B6	> 50 µg/mL
B7	> 50 µg/mL
B8	4.2 µg/mL
B9	21 µg/mL
B10	1.9 µg/mL
B11	50 µg/mL

What follows are binders tested against B12 (assay: cell-based or functional assay).

Binder	IC50, SBE-luciferase reporter in HEK293 cells
B1	0.24 µg/mL
B2	0.13 µg/mL
B3	0.25 µg/mL
B4	0.071 µg/mL
B5	0.1 µg/mL
B6	0.16 µg/mL
B7	0.094 µg/mL
B8	0.073 µg/mL
B9	0.18 µg/mL
B10	0.1 µg/mL
B11	0.21 µg/mL

The binders below were run against T2, GDF-11 (assay: cell-based or functional assay).

Binder	IC50, SBE-luciferase reporter in HEK293 cells
B1	0.19 µg/mL
B2	0.26 µg/mL
B3	0.39 µg/mL
B4	0.13 µg/mL
B5	0.077 µg/mL
B6	0.29 µg/mL
B7	0.22 µg/mL
B8	0.23 µg/mL
B9	0.23 µg/mL
B10	0.18 µg/mL
B11	0.24 µg/mL

These binders were tested against T3, growth differentiation factor 8 (GDF-8) (assay: SPR (Biacore 8K), Fc protein captured on anti-human IgG, ligand injected).
Procedure: (§1) The Cytiva Biacore 8k was used to measure the kinetics of the interactions between the ActRII- and chimera-Fc proteins and Activin A/Activin B/growth differentiation factor 8 (GDF-8)/GDF-11/BMP-9/BMP-10. Series S CM4 Sensor Chips were immobilized with anti-human capture antibody using the reagents and protocol in the Biacore Human Antibody Capture Kit (GE Life Sciences). Briefly, anti-human IgG was diluted to 25 μg/mL in immobilization buffer. The carboxylated surface of the sensor was activated by injecting a mixture of EDC and NHS. The anti-human IgG was injected into the activated sensor chip flow cells at 10 μL/min for a total of 7 minutes until the chip reached an immobilization level of 3000 resonance units (RU). Ethanolamine was injected to deactivate the sensor surfaces. The chip has 8 flow cells to be used for binding analysis, each with an in-line reference surface to subtract instrument noise and non-specific binding to the sensor chip. The ActRII- and chimera-Fc proteins were captured in their own flow cell to allow for a maximum analyte binding response of 20-30 RU. This was done by injecting 10-20 μL of the ActRII- and chimera-Fc proteins into the flow cells at a concentration of 2 μg/mL until 60-90 RU was captured. Ligand at a single concentration was injected at […] for 60 seconds and then allowed to dissociate under buffer flow for no less than 5 minutes. After the cycle completed, captured protein was stripped from the chip with an injection of 3 M magnesium chloride, the regeneration buffer provided with the Biacore Human Antibody Capture Kit. Each ligand was injected in a concentration series, including a buffer only 0 nM concentration to serve as a double reference for subtracting out instrument noise. The data were analyzed using the Biacore Insight Evaluation Software.

Binder	Kd
B1	97.7 pM
B2	125 pM
B3	89.8 pM
B4	24.8 pM
B5	68.2 pM
B6	67.2 pM
B7	115 pM
B8	122 pM
B9	12.1 pM
B10	229 pM
B11	203 pM

Each binder was assayed against B13 in the same assay as above.
Procedure: as §1

Binder	Kd
B1	35.7 pM
B2	24 pM
B3	21.7 pM
B4	25.6 pM
B5	32 pM
B6	16 pM
B7	18.6 pM
B8	48 pM
B9	24 pM
B10	40 pM
B11	70.3 pM

Each binder was assayed against T4, ActRIIB-A1 (SEQ ID NO: 120) chimera-Fc … in the same assay as above.
Procedure: as §1

Binder	Kd
B12	< 1 pM
B13	44.8 pM

Each binder was assayed against T1, BMP-9 in the same assay as above.
Procedure: as §1

Binder	Kd
B1	18000 pM
B2	32900 pM
B3	77200 pM
B4	13600 pM
B5	49700 pM
B6	13100 pM
B7	13600 pM
B8	2550 pM
B9	58900 pM
B10	8100 pM
B11	62000 pM

These binders were tested against B12 in the same assay as above.
Procedure: as §1

Binder	Kd
B1	75.5 pM
B2	5.31 pM
B3	24.9 pM
B4	< 1 pM
B5	55.8 pM
B6	< 1 pM
B7	< 1 pM
B8	17.4 pM
B9	8.89 pM
B10	< 1 pM
B11	19.9 pM

Each binder was assayed against T5, BMP-10 in the same assay as above.
Procedure: as §1

Binder	Kd
B1	28.9 pM
B2	227 pM
B3	200 pM
B4	12.2 pM
B5	347 pM
B6	60.5 pM
B7	46 pM
B8	126 pM
B9	141 pM
B10	39.7 pM
B11	66.3 pM

Each binder was assayed against T2, GDF-11 in the same assay as above.
Procedure: as §1

Binder	Kd
B1	< 1 pM
B2	3430 pM
B3	< 1 pM
B4	< 1 pM
B5	< 1 pM
B6	< 1 pM
B7	< 1 pM
B8	6.65 pM
B9	< 1 pM
B10	< 1 pM
B11	< 1 pM
